Drawing on US20170052184A1, this text covers Reactivity (OD 492 nm), OD (A492) and expected percent binding for 12 molecules.

Sequences and labels used below:
T1: HCV bt-141-161 (Peptide 2, HCVc 141-161) (Hepatitis C virus (numbering per HCV-1))
T1 sequence (peptide, biotin (carboxy-terminal per [p-0227]; N-terminal per [p-0050])): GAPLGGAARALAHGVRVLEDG

T2: HCV Core1-169 (HCV-1), P26664
T2 chain: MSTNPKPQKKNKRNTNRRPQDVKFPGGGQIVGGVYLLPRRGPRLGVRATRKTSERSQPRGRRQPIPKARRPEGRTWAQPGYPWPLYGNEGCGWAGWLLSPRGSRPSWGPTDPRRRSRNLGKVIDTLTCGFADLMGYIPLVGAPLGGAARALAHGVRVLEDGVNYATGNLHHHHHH

T3: HCV Core1-169 (hepatitis C virus (HCV-1)), P26664
T3 chain: T2 chain

B1: HCV 208A-210 (antibody, V domains shown)
VH: QVQLQQSGPELVKPGASMRISCKASGYTFTSYYVHWIKQRPGQGLEWIGCIYPGDVNTDYNEKFKGKATLTADKSSSTAYMQVSTLTSEDSAIYFCVLYYYGSFAYWGQGTLVTVSA
VL: EIVLTQSPAITAASLGQNVTITCRASSSVSYMHWYRQKSGTSPQLWIYEISRRASGVPARFRASGSGTSYSLTISSMEAEDAAIYYCQQWNYPLTFGAGTKLEVKR
B2: HCV 208A-874 (antibody, V domains shown)
VH: QVQLQQPGAELVKPGASVKLSCKASGYTLSSYWMHWVKQRPGQGLEWIGEIHPSDSYTSYNQKFKDKATLTVDKSSSTAYMQLSSLTSEDSAVYYCARGGYYRYDEFAYWGQGTLVTVSA
VL: DIVMTQSHKFMSTSIGDRVSITCKASQNVSPAVAWYQQKPGQSPKLLIYSASSRYTGVPDRFTGSGSGTAFTFTISSVQAEDLAVYFCQQHFSTPWTFGGGTMLEIKR
B3: HCV 208B-826 (antibody, V domains shown)
VH: DVQLVESGGGLVQAGGSRKLSCAASGFPFSSFGMHWVRQAPEKGLEWVASISSRTSKIYYADNLKGRFTISRDNPKNTLFLQMTSLGSEDTAMYYCVRSVFGNSYWFFDVWGAGTTVTVSS
VL: DIVLTQSPATLSVTPGDRVSLSCRASQRIYNYLHWYQQKSHESPRLLTKYASQSISGIPSRFSGSGSGTDFILTINSVETEDFGMYFCQQSNSWPLTFGAGTKLELRR
B4: HCV 208B-408 (antibody, V domains shown)
VH: EVKLVESGGGLVQPGGSLRLSCASSGFTFTDYYMSWVRQPPGKALEWLGFIRNKAYGYTTEFSASVNGRFTISRDDSQSVPYLQMNTLRAEDSATYYCARVLYYDYGGFAYWGQGTLVTVST
VL: DIQMTQSPASLSASVGETVTITCRASGNIHTYLAWYQQKQGKSPQLLVYNANTLADGVPSRFSGSGSGTQFSLKINSLQPDDFGSYYCQHFWSAPWTFGGGTQLEIKR
B5: HCV 208A-692 (antibody, V domains shown)
VH: QGQMQQSGAELAKPGASVKLSCKTSGFTFSSSYISWLKQKPGQSLEWIAWIFAGTGNTNYNQKFTDKAQLTVDTSSSTAYMQLSSLTTEDSAIYYCAISGTGFTYWGQGTLVTVSA
VL: EVLMTQSPLSLPVSLGDQASISCRSSQSLEHSNGNTYLEWFLQRPGQPPKLLIYKVSSRFSGVPDRFSGSGSGTDFTLKISRVEAEDLGVYYCFQGSHVPFTFGSGTKLAIKR
B6: HCV 208A-422 (antibody, V domains shown)
VH: DVQLQESGPGLVNPSQSLSLTCSVTGYSITSGYYWIWIQQSPGNKLEWMGYIKYDGGNNYSPSLKNRISIARDTSKNQCFLKLNSVTIEDTATYYCTRGSDSFDYWGQGTTLTVSS
VL: DIVLTQSPASLAVSLGQRAIISCKASQSVSFAGTNLMHWYQQKPGQQPKLLIYRASNLETGVPTRFSGSGSRTDFTLNIHPVEEDDAATYYCQQSREYYTFGGGTKLEIKR
B7: HCV 208A-126 (antibody, V domains shown)
VH: QLQQSGPVLVKPGASVMISCKTSGYTFTENAMHWVKQSHGKSLEWIGGVNPNNGDTIFNQKFKGKATLTVDKSSNTAFTELRSLPSEESTVYYCVRRGLDFFDYWGQGTSVTVSS
VL: DIVLTQSPASLAVSLGQRATISCRASQSVSTSRYSYMHWYQQKPGQPPKLLIKYASNLESGVPARFSGSGSGTDFTLNIHPVAEEDTAAYYCQHSWEFPFTFGSGTKLEIKR
B8: HCV 208B-822 (antibody, V domains shown)
VH: QVQLKQSGPGLVQPSQSLSITCTVSGFSLITYGVHWVRQSPGKGLEWLGVIWGGGSTGYNAAFVSRLNITKDNSKSQVFFKMNSLQPDDTAIYYCARNGGATVFDYWGQGTTLTVSS
VL: DIVMTQSPATLSVTPGDRVSLSCRASQTISDYLHWYQQKSHESPRLLIKYASQSISGIPSRFSGSGSGSHFTLSINSVEPEDVGVYYCQNGHSFPWTFGGGTKLEIKR
B9: HCV 208B-911 (antibody, V domains shown)
VH: QVHLQQPGAELVRPGVSVKLSCKASGYTFTTYSINWMKQRPGQGLEWIGNIYPSTSHTNYNQKFRDKATMTVDKSSSTAYMQLSSPTSEDSAVYYCTINAYSMDYWGQGTSVTVSS
VL: QIVLTQSPEIMSASPGEKVTITCSASSSVSFMYWFQQKPGTSPKLWIYITSNLASGVPTRFSGSGSGTSYSLTISRMEAEDAATYYCQQRSSFPYTFGGGTKLEMKR
B10: HCV 208B-174 (antibody, V domains shown)
VH: EVKLEESGGGLVQPGGSMKLSCVASGFSFSSYWMSWVRQSPEKGLDWVAEIRLRSDNYATHYAESVKGRFTISRDDSISRLYLQMNTLRAEDTGIYYCTWMTYWGQGTLVTVSA
VL: QNVLTQSPAIMSASPGEKVTMSCSASSSVTYMFWYQLKPESSPRLLIYDTSNLASGVPVRFSGSGSGTSYSLTISRMEAEDAATYYCQEWSSYPLTFGAGTKLDLKR
B11: HCV 208A-983 (antibody, V domains shown)
VH: B5 VH with A12V, I34F, F52Y, N59I, S75A, Y80F, T88I
VL: B5 VL with E1D, S7T, S14N, E30L, R44K, P48S, K55N, S58N
B12: HCV 208B-471 (antibody, V domains shown)
VH: QGQLQQSGPVLVKPGASEILYCKTSGFTFSSTYISWLKQKPGQSLEWIAWIYAGTGATNYNQKFTGKAQLTVDASSNTAYMHFSGLTPEDSAIYYCAISGAGVYWGQGTLVTVSA
VL: DVVMTQTPLSLPVSLGDQASISCRSSQSLLHSNGNTYLEWYLQKPGQSPNLLIYNVSNRFSGVPDRFSGSGSGTDFALKISRVGAEDLGVYYCFQGSHVPLTFGAGTKLELKR

Positions count from the first letter of the chain named.

The target in one assay is bovine serum albumin (bovine) (UniProt P02769). Description: EIA, BSA control.
Sequence of bovine serum albumin (bovine) (P02769 25-607 limits assumed): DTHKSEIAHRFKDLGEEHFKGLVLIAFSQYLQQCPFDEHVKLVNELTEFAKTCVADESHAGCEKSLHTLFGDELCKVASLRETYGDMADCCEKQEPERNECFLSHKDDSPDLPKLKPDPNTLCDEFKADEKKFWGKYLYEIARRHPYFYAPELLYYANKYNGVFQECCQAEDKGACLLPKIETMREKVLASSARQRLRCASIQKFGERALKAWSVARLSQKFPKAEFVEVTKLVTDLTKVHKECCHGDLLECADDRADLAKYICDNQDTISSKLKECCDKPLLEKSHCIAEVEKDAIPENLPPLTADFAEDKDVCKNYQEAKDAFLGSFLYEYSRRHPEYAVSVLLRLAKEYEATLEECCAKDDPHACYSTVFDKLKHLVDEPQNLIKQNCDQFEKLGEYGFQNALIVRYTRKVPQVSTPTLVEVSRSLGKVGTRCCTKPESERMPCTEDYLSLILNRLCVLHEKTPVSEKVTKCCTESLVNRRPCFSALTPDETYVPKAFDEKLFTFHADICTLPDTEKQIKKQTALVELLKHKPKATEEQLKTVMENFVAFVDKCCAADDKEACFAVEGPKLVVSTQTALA
Conditions: not given
B1 showed a Reactivity (OD 492 nm) of 0.06 OD units.

Consider B2, for which the Reactivity (OD 492 nm) stood at 0.05 OD units.

For the molecule B3, the Reactivity (OD 492 nm) was 0.07 OD units.

On to B4, for which the Reactivity (OD 492 nm) was found to be 0.06 OD units.

B5: the Reactivity (OD 492 nm) came to 0.06 OD units.

B6: the Reactivity (OD 492 nm) stood at 0.07 OD units.

B7 had a Reactivity (OD 492 nm) of 0.1 OD units.

Molecule B8 registered a Reactivity (OD 492 nm) of 0.05 OD units.

The molecule B9 came in with a Reactivity (OD 492 nm) of 0.1 OD units.

The target in the next assay is bovine serum albumin (BSA) (bovine) (UniProt P02769). Description: EIA, BSA background.
Sequence of bovine serum albumin (BSA) (bovine) (P02769 25-607 limits assumed): as above
Conditions: not given
Take B1: the OD (A492) was 0.06 OD.

The molecule B2 had an OD (A492) of 0.06 OD.

The molecule B3 had an OD (A492) of 0.08 OD.

For B4, the OD (A492) was determined as 0.08 OD.

Turning to B5, the OD (A492) is 0.06 OD.

The molecule B6 showed an OD (A492) of 1.1 OD.

B7 gave an OD (A492) of 0.24 OD.

Regarding B8, the OD (A492) is 0.06 OD.

Regarding B9, the OD (A492) was found to be 1.17 OD.

For the next assay the target is unchanged. The assay is described as follows: EIA, BSA background.
Conditions: not given
The source holds these as a separate data set.
Molecule B1 registered an OD (A492) of 0.08 OD.

Consider B2, for which the OD (A492) came out at 0.1 OD.

As to B3, the OD (A492) was found to be 0.41 OD.

In turn, B4 registered an OD (A492) of 0.1 OD.

B5: the OD (A492) was 0.09 OD.

In the case of B6, the OD (A492) is 0.11 OD.

Regarding B7, the OD (A492) is 0.07 OD.

B8 came in with an OD (A492) of 0.11 OD.

Take B9: the OD (A492) is 0.17 OD.

The target in a further assay is HCV Core1-169 (HCV-1) (UniProt P26664). The assay is described as follows: EIA, core1-169 coated on plate.
Conditions: not given
In the case of B2, the OD (A492) came out at 0.45 OD.

Molecule B6 had an OD (A492) of 1.68 OD.

Another assay addresses T1, HCV bt-141-161 (Peptide 2, HCVc 141-161) (Hepatitis C virus (numbering per HCV-1)). The assay is described as follows: EIA, captured mAb + biotin peptide.
Conditions: not given
In the case of B4, the Reactivity (OD 492 nm) was determined as 0.2 OD units.

For the molecule B5, the Reactivity (OD 492 nm) came out at 0.38 OD units.

The target in the next assay is HCV Core1-169 (HCV-1) (UniProt P26664). Description: EIA, core1-169 captured by mAb 14-153-229.
Conditions: not given
For B2, the OD (A492) was found to be 0.18 OD.

In turn, B6 showed an OD (A492) of 0.18 OD.

A further assay concerns the target T2, HCV Core1-169 (HCV-1), P26664. Description: EIA, core1-169 coated on plate. As to conditions: remark: other sources report otherwise.
The molecule B10 registered an OD (A492) of 0.15 OD.

Molecule B11 came in with an OD (A492) of 0.12 OD.

As for B12, the OD (A492) turned out to be 0.24 OD.

For another assay, the target named is T3, HCV Core1-169 (hepatitis C virus …). The assay is described as follows: SPR sandwich, capture mAb C11-3. As to conditions: remark: other sources report otherwise.
The molecule B10 came in with an expected percent binding of 1.6%.

As to B11, the expected percent binding was below 1%.

Regarding B12, the expected percent binding is below 1%.

Another assay shares this target. The assay is described as follows: SPR sandwich, capture mAb C11-7. As to conditions: remark: other sources report otherwise.
On to B10, for which the expected percent binding is 1.5%.

As to B11, the expected percent binding was below 1%.

On to B12, for which the expected percent binding was below 1%.

For the next assay the target is unchanged. The assay is described as follows: SPR sandwich, capture mAb C11-9. The following applies: remark: other sources report otherwise.
As for B10, the expected percent binding is below 1%.

In turn, B11 displayed an expected percent binding below 1%.

For B12, the expected percent binding is below 1%.

A further assay shares this target. Description: SPR sandwich, capture mAb C11-14. The following applies: remark: other sources report otherwise.
In turn, B10 displayed an expected percent binding of 1.6%.

Turning to B11, the expected percent binding was below 1%.

In the case of B12, the expected percent binding is below 1%.

The next assay deals with T2, HCV Core1-169 (HCV-1), P26664. The assay is described as follows: EIA, core1-169 captured by mAb 14-153-229. As to conditions: remark: other sources report otherwise.
For B10, the OD (A492) is 0.75 OD.

The molecule B11 yielded an OD (A492) of 0.64 OD.

Molecule B12 returned an OD (A492) of 0.35 OD.
